Measured values: patent US20220000982A1 (Novo Nordisk, published 2022)
*1 amine or outer side, *2 acyl side, *3 side chain or, on linkers, in order; H or OH if unused. Where no end group is shown, it is not given here. Side-chain parts run from the residue outwards. [ ]: non-standard residue; d: D form. The star is where a group is joined. C20 diacid = O=C(O)CCCCCCCCCCCCCCCCCCC(=O)*; C18 diacid = O=C(O)CCCCCCCCCCCCCCCCC(=O)*; γGlu = O=C(O)[C@H](CCC(=O)[*:2])N[*:1]; Trx = NC[C@H]1CC[C@H](C(=O)O)CC1; Nle = CCCC[C@H](N)C(=O)O; AEEA = NCCOCCOCC(=O)O; Aib = CC(C)(N)C(=O)O

What follows are binders tested against human GLP-1 receptor (human, UniProt P43220 24-463) (assay: cell-based or functional assay).

Binder	EC50, hGLP-1-R CRE Luc, 0.2% HSA [nM]
Ac-[dY][Aib]EGTFISDYSIA[Nle]DKIRQQDFVK([γGlu-γGlu-γGlu-C18 diacid])WLLAQKP-NH2	> 100

What follows are binders tested against T1, human GIP receptor (human, UniProt P48546 22-466) (assay: cell-based or functional assay).
T1 sequence (looked up): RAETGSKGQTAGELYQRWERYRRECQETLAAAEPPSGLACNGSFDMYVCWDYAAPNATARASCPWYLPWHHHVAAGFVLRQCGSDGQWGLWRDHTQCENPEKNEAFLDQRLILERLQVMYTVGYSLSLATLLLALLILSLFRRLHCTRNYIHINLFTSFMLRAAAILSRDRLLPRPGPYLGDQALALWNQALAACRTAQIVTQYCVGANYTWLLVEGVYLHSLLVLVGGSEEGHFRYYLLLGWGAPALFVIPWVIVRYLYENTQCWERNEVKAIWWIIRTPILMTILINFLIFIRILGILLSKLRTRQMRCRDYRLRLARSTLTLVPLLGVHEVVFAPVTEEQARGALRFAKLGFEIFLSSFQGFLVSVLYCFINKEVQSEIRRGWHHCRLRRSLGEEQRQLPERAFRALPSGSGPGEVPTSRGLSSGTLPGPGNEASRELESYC

Binder	EC50, hGIP-R CRE Luc, 0.2% HSA [nM]
Y[Aib]EGTFISDYSIA[Nle]DKIRQQDFVK([γGlu-γGlu-γGlu-Trx-C20 diacid])WLLAQKGKEEDWKHNITQ	0.022
Y[Aib]EGTFISDYSIA[Nle]DAIRQQDFVK([γGlu-γGlu-γGlu-Trx-C20 diacid])WLLAQKG	0.266
Ac-[dY]AEGTFISDYSIA[Nle]DKIHQQDFVK([γGlu-γGlu-γGlu-Trx-C20 diacid])WLLAQKP-NH2	0.0712
Ac-[dY]AEGTFISDYSIA[Nle]DKIRQEDFVK([AEEA-AEEA-γGlu-C18 diacid])WLLAQKG	0.025
Ac-[dY]AEGTFISDYSIA[Nle]DKIRQQDFVK([γGlu-γGlu-γGlu-Trx-C20 diacid])WLLAQKG	0.18
Y[Aib]EGTFISDYSIA[Nle]DKIRQQDFVK([AEEA-AEEA-γGlu-Trx-C20 diacid])WLLAQKG	0.0447
Y[Aib]EGTFISDYSIA[Nle]DKIRQ[Aib]DFVK([γGlu-γGlu-γGlu-Trx-C20 diacid])WLLAQKG	0.0712
Ac-YAEGTFISDYSIA[Nle]DKIRQQDFVK([γGlu-γGlu-γGlu-C18 diacid])WLLAQKG	0.546
Ac-[dY]AEGTFISDYSIA[Nle]DKIRQQDFVK([γGlu-γGlu-γGlu-Trx-C20 diacid])WLLAQKP-NH2	0.0762
Y[Aib]EGTFISDYSIA[Nle]DKIHQEDFVK([γGlu-γGlu-γGlu-γGlu-Trx-C20 diacid])WLLAQKG	0.81
Y[Aib]EGTFISDYSIA[Nle]DAIRQQDFVK([γGlu-γGlu-γGlu-C18 diacid])WLLAQKG	0.0725
Ac-[dY]AEGTFISDYSIA[Nle]DKIRQQDFVK([γGlu-γGlu-γGlu-C18 diacid])WLLAQKG	0.0489
Y[Aib]EGTFISDYSIA[Nle]DKIRQQDFVK([γGlu-γGlu-γGlu-Trx-C20 diacid])WLLAQKG	0.0721
Ac-[dY]AEGTFISDYSIA[Nle]DKIHQ[Aib]DFVK([γGlu-γGlu-γGlu-Trx-C20 diacid])WLLAQKG	0.153
Y[Aib]EGTFISDYSIA[Nle]DKIRQQDFVK([AEEA-AEEA-γGlu-Trx-C20 diacid])WLLAQKGKEEDWKHNITQ	0.014
Ac-[dY]AEGTFISDYSIA[Nle]DKIRQQDFVK([AEEA-AEEA-γGlu-γGlu-γGlu-C18 diacid])WLLAQKG	0.0431
Ac-[dY]AEGTFISDYSIA[Nle]DKIHQEDFVK([γGlu-γGlu-γGlu-Trx-C20 diacid])WLLAQKG	0.547
YAEGTFISDYSIAMDKIHQQDFVNWLLAQKG (ligand) [hGIP(1-31)]	0.00224
Y[Aib]EGTFISDYSIA[Nle]DKIRQEDFVK([γGlu-γGlu-γGlu-Trx-C20 diacid])WLLAQKG	0.252
HAEGTFTSDVSSYLEGQAAKEFIAWLVKGRG (ligand) [hGLP-1(7-37)]	> 100
Ac-[dY]AEGTFISDYSIADDKIRQEDFVK([AEEA-AEEA-γGlu-C18 diacid])WLLAQKG	0.0915
Y[Aib]EGTFISDYSIA[Nle]DKIRQ[Aib]DFVK([γGlu-γGlu-γGlu-C18 diacid])WLLAQKG	0.0094
Y[Aib]EGTFISDYSIA[Nle]DKIRQEDFVK([γGlu-γGlu-γGlu-C18 diacid])WLLAQKG	0.0629
Y[Aib]EGTFISDYSIA[Nle]DKIRQQDFVK([γGlu-γGlu-γGlu-Trx-C20 diacid])WLLAQKP-NH2	0.0615
Ac-[dY][Aib]EGTFISDYSIA[Nle]DKIHQQDFVK([γGlu-γGlu-γGlu-Trx-C20 diacid])WLLAQKP-NH2	0.0384
Ac-[dY][Aib]EGTFISDYSIA[Nle]DKIRQQDFVK([γGlu-γGlu-γGlu-C18 diacid])WLLAQKP-NH2	0.0212
Y[Aib]EGTFISDYSIA[Nle]DKIHQEDFVK([γGlu-γGlu-γGlu-γGlu-C18 diacid])WLLAQKG	0.158
Ac-[dY]AEGTFISDYSIA[Nle]DKIRQQDFVK([AEEA-AEEA-γGlu-C18 diacid])WLLAQKG	0.0304
Y[Aib]EGTFISDYSIA[Nle]DKIHQQDFVK([γGlu-γGlu-γGlu-Trx-C20 diacid])WLLAQKP-NH2	0.0675
